According to article PMC4031500:

Biological target: chB6 (Bu-1), chicken B-lymphocyte allotypic marker (chicken (endogenous in DT40))
Assay: non-reducing against reducing SDS-PAGE with Western blot; chB6 immunoprecipitated from DT40 lysate, SDS-PAGE without reducing agent, blot with anti-chB6 peptide antibody; compared with membrane fractions run with 2-mercaptoethanol

Substance: chB6 (Bu-1), chicken B-lymphocyte allotypic marker (natural protein)
- stoichiometry N: 2
